Patent US20060084791A1
“And” between values parts separate entries of the source, which are not always exact repeats. Equal values may be shown once.

What was measured:
Assay in all cases: cell-based or functional assay
[1] = target: ecotropic receptor mCAT-1 (UniProt Q09143)
[2] = target: human polytropic/xenotropic receptor encoded by the human RMC1 locus (human) (UniProt Q9UBH6)
[3] = target: polytropic/xenotropic receptor encoded by the Rmc1 locus of the NIH Swiss inbred NFS/N mouse (mouse (NIH Swiss; NIH 3T3 cells)) (UniProt Q9Z0U0)
Sequence of polytropic/xenotropic receptor encoded by the Rmc1 locus of the NIH Swiss inbred NFS/N mouse (mouse (NIH Swiss; NIH 3T3 cells)) (Q9Z0U0 whole entry): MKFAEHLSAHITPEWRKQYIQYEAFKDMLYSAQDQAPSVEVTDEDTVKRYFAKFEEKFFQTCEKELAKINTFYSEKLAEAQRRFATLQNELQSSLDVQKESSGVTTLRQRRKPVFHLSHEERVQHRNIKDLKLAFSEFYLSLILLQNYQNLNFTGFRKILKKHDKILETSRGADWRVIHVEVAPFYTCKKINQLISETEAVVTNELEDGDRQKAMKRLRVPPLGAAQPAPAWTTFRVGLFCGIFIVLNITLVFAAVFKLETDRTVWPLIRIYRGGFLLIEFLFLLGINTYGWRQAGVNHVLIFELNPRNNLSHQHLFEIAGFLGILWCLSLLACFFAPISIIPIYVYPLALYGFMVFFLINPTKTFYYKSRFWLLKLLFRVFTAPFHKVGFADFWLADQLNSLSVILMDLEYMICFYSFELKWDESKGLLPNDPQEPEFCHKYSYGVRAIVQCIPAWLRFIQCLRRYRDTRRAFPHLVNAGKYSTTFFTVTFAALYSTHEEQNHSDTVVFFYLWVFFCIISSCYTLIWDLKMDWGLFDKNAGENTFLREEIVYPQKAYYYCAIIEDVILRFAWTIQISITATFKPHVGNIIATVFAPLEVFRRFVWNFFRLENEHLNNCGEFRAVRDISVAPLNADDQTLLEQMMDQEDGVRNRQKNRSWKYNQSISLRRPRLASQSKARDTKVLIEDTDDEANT

Sequence of human polytropic/xenotropic receptor encoded by the human RMC1 locus (human) (Q9UBH6 whole entry): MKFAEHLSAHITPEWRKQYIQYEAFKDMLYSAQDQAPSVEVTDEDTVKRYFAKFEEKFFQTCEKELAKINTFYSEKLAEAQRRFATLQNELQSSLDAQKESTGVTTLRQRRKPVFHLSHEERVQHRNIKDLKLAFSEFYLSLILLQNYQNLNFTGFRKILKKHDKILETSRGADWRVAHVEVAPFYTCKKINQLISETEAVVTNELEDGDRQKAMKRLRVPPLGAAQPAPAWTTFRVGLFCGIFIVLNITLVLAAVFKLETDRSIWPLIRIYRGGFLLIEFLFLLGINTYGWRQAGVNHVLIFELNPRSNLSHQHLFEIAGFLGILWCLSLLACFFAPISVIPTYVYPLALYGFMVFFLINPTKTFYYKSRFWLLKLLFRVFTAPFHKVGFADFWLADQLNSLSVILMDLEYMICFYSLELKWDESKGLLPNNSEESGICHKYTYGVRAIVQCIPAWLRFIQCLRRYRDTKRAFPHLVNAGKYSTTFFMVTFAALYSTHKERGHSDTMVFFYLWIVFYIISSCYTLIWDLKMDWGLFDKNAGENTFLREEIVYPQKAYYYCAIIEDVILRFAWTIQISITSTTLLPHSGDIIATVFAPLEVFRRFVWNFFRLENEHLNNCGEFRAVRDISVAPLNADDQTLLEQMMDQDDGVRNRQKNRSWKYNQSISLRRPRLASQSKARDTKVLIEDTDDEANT
Sequence of ecotropic receptor mCAT-1 (Q09143 whole entry): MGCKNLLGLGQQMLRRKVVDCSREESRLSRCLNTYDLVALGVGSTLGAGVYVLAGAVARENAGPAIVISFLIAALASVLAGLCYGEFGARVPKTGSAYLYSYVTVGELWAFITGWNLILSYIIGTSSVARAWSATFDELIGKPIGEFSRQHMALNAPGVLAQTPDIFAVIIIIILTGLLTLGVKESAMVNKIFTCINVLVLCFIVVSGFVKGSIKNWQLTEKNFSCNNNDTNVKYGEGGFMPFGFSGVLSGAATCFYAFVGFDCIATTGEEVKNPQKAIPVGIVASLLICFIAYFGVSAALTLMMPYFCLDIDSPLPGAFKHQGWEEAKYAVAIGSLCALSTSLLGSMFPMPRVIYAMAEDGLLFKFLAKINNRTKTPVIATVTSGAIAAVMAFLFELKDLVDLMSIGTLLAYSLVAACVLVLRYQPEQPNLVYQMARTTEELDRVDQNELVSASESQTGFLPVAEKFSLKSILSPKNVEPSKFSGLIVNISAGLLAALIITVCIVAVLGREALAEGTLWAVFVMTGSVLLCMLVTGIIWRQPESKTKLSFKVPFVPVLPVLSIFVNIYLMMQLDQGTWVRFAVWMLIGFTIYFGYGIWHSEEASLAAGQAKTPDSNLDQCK

**Q.** What does the source list for “Akv MLV envelope protein (ecotropic envelope) (from UniProt P03386 32-669)”?
**A.** fold lowering of titer on PSI-2 cells against NIH 3T3 cells [1]: 10000 fold; titer of mini-virus on HeLa mCAT cells [1]: 50000 cfu/mL and 30000 cfu/mL; titer of mini-virus on NIH3T3 cells [1]: 1.6e+06 cfu/mL and 800000 cfu/mL; titer of mini-virus on PSI-2 cells (ecotropic receptor blocked by ecotropic envelope) [1]: 170 cfu/mL and 120 cfu/mL

**Q.** Which results are given for “MCF 247 envelope protein (polytropic MLV MCF-247)”?
**A.** Titer on 293 cells [2]: 2400 c.f.u./ml; Titer on Human HeLa cells [2]: 2 c.f.u./ml; Titer on TE 671 cells transfected with MCF 247 (receptor blocked by MCF 247 envelope) [2]: 16 c.f.u./ml; titer on TE 671 (human) cells [2]: 150 c.f.u./ml; titer on NIH 3T3 (murine) cells [3]: 4.8e+06 c.f.u./ml

**Q.** How did the titer on HeLa cells [2] turn out when “S/M Leader (SL3-2 envelope with the signal peptide of MCF 247)” was run?
**A.** 0 cfu/mL

**Q.** What about the titer on TE 671 cells [2] of the same substance?
**A.** 5 cfu/mL

**Q.** What about the titer on NIH 3T3/MCF 247 cells (polytropic receptor blocked) [3] of the same substance?
**A.** 12.5 cfu/mL

**Q.** And the titer on NIH 3T3 cells [3]?
**A.** 200000 cfu/mL

**Q.** What about the titer on Psi-2 cells (ecotropic receptor blocked) [3] of the same substance?
**A.** 100000 cfu/mL

**Q.** What does the source list for “S/M VR3 (SL3-2 envelope with the VR3 region of MCF 247) (from UniProt P03388 33-640)”?
**A.** titer on HeLa cells [2]: 250 cfu/mL; titer on TE 671 cells [2]: 22500 cfu/mL; titer on NIH 3T3/MCF 247 cells (polytropic receptor blocked) [3]: 2.5 cfu/mL; titer on NIH 3T3 cells [3]: 500000 cfu/mL; titer on Psi-2 cells (ecotropic receptor blocked) [3]: 300000 cfu/mL

**Q.** Which results are given for “S/M VRA (SL3-2 envelope with the VRA segment of MCF 247)”?
**A.** titer on HeLa cells [2]: 0 cfu/mL; titer on TE 671 cells [2]: 2.5 cfu/mL; titer on NIH 3T3/MCF 247 cells (polytropic receptor blocked) [3]: 2.5 cfu/mL; titer on NIH 3T3 cells [3]: 225000 cfu/mL; titer on Psi-2 cells (ecotropic receptor blocked) [3]: 400000 cfu/mL

**Q.** With “S/M VRB (SL3-2 envelope with the VRB segment of MCF 247)” as the substance, how does the titer on HeLa cells [2] read?
**A.** 0 cfu/mL

**Q.** And the titer on TE 671 cells [2]?
**A.** 5 cfu/mL

**Q.** And the titer on NIH 3T3/MCF 247 cells (polytropic receptor blocked) [3]?
**A.** 2.5 cfu/mL

**Q.** What about the titer on NIH 3T3 cells [3] of the same substance?
**A.** 3e+06 cfu/mL

**Q.** What about the titer on Psi-2 cells (ecotropic receptor blocked) [3] of the same substance?
**A.** 500000 cfu/mL

**Q.** With “SL3-2 envelope mutant CR (C at 212, R at 213) (from UniProt P03388 33-640)” as the substance, how does the titer on TE 671 (human) cells [2] read?
**A.** 12 c.f.u./ml

**Q.** What about the titer on NIH 3T3 (murine) cells [3] of the same substance?
**A.** 2.4e+06 c.f.u./ml

**Q.** “SL3-2 envelope mutant GA (G at 212, A at 213) (from UniProt P03388 33-640)” was tested. Which titer on TE 671 (human) cells [2] did it give?
**A.** 2800 c.f.u./ml

**Q.** What about the titer on NIH 3T3 (murine) cells [3] of the same substance?
**A.** 5.6e+06 c.f.u./ml

**Q.** With “SL3-2 envelope mutant GI (G at 212, I at 213) (from UniProt P03388 33-640)” as the substance, how does the Titer (cfu/mL) on TE 671 cells [2] read?
**A.** 450000 cfu/mL

**Q.** What about the Titer on 293 cells [2] of the same substance?
**A.** 200000 c.f.u./ml

**Q.** And the Titer on Human HeLa cells [2]?
**A.** 130 c.f.u./ml

**Q.** And the Titer on TE 671 cells transfected with MCF 247 (receptor blocked by MCF 247 envelope) [2]?
**A.** 6000 c.f.u./ml

**Q.** What about the fold decrease of titer on TE 671 cells expressing MCF 247 envelope [2] of the same substance?
**A.** 100 fold

**Q.** And the fold rise of titer on human cells against wild type SL3-2 [2]?
**A.** 100000 fold

**Q.** And the titer on TE 671 (human) cells [2]?
**A.** 440000 c.f.u./ml

**Q.** And the Titer (cfu/mL) on NIH 3T3 cells [3]?
**A.** 2e+06 cfu/mL

**Q.** And the titer on NIH 3T3 (murine) cells [3]?
**A.** 7.6e+06 c.f.u./ml

**Q.** Which titer on TE 671 (human) cells [2] does the source give for “SL3-2 envelope mutant GK (G at 212, K at 213) (from UniProt P03388 33-640)” here?
**A.** 5600 c.f.u./ml

**Q.** And the titer on NIH 3T3 (murine) cells [3]?
**A.** 5.2e+06 c.f.u./ml

**Q.** Which results are given for “SL3-2 envelope mutant GT (G at 212, T at 213) (from UniProt P03388 33-640)”?
**A.** Titer (cfu/mL) on TE 671 cells [2]: 1500 cfu/mL; titer on TE 671 (human) cells [2]: 520 c.f.u./ml; Titer (cfu/mL) on NIH 3T3 cells [3]: 2e+06 cfu/mL; titer on NIH 3T3 (murine) cells [3]: 8.4e+06 c.f.u./ml

**Q.** “SL3-2 envelope mutant GV (G at 212, V at 213) (from UniProt P03388 33-640)” was tested. Which titer on TE 671 (human) cells [2] did it give?
**A.** 320000 c.f.u./ml

**Q.** What about the titer on NIH 3T3 (murine) cells [3] of the same substance?
**A.** 3.6e+06 c.f.u./ml

**Q.** “SL3-2 envelope mutant LA (L at 212, A at 213) (from UniProt P03388 33-640)” was tested. Which titer on TE 671 (human) cells [2] did it give?
**A.** 5200 c.f.u./ml

**Q.** And the titer on NIH 3T3 (murine) cells [3]?
**A.** 1.1e+07 c.f.u./ml

**Q.** How did the Titer on 293 cells [2] turn out when “SL3-2 envelope mutant LI (L at 212, I at 213) (from UniProt P03388 33-640)” was run?
**A.** 12000 c.f.u./ml

**Q.** What about the Titer on TE 671 cells transfected with MCF 247 (receptor blocked by MCF 247 envelope) [2] of the same substance?
**A.** 68 c.f.u./ml

**Q.** And the fold decrease of titer on TE 671 cells expressing MCF 247 envelope [2]?
**A.** 100 fold

**Q.** And the titer on TE 671 (human) cells [2]?
**A.** 1200 c.f.u./ml

**Q.** What about the titer on NIH 3T3 (murine) cells [3] of the same substance?
**A.** 2.4e+06 c.f.u./ml

**Q.** How did the titer on TE 671 (human) cells [2] turn out when “SL3-2 envelope mutant LV (L at 212, V at 213) (from UniProt P03388 33-640)” was run?
**A.** 16000 c.f.u./ml

**Q.** What about the titer on NIH 3T3 (murine) cells [3] of the same substance?
**A.** 3.6e+06 c.f.u./ml

**Q.** Which results are given for “SL3-2 envelope mutant MA (M at 212, A at 213) (from UniProt P03388 33-640)”?
**A.** titer on TE 671 (human) cells [2]: 250000 c.f.u./ml; titer on NIH 3T3 (murine) cells [3]: 9.6e+06 c.f.u./ml

**Q.** How did the titer on TE 671 (human) cells [2] turn out when “SL3-2 envelope mutant MI (M at 212, I at 213) (from UniProt P03388 33-640)” was run?
**A.** 28000 c.f.u./ml

**Q.** And the titer on NIH 3T3 (murine) cells [3]?
**A.** 240000 c.f.u./ml

**Q.** What does the source list for “SL3-2 envelope mutant MV (M at 212, V at 213) (from UniProt P03388 33-640)”?
**A.** Titer on 293 cells [2]: 240000 c.f.u./ml; Titer on Human HeLa cells [2]: 100 c.f.u./ml; Titer on TE 671 cells transfected with MCF 247 (receptor blocked by MCF 247 envelope) [2]: 16000 c.f.u./ml; fold decrease of titer on TE 671 cells expressing MCF 247 envelope [2]: 100 fold; fold rise of titer on human cells against the GI mutant [2]: > 10 fold; titer on TE 671 (human) cells [2]: 7.2e+06 c.f.u./ml; titer on NIH 3T3 (murine) cells [3]: 9.6e+06 c.f.u./ml

**Q.** What does the source list for “SL3-2 envelope mutant RA (R at 212, A at 213) (from UniProt P03388 33-640)”?
**A.** titer on TE 671 (human) cells [2]: 4 c.f.u./ml; titer on NIH 3T3 (murine) cells [3]: 1e+07 c.f.u./ml

**Q.** How did the Titer (cfu/mL) on TE 671 cells [2] turn out when “SL3-2 envelope mutant RI (R at 212, I at 213) (from UniProt P03388 33-640)” was run?
**A.** 22.5 cfu/mL

**Q.** What about the titer on TE 671 (human) cells [2] of the same substance?
**A.** 24 c.f.u./ml

**Q.** And the Titer (cfu/mL) on NIH 3T3 cells [3]?
**A.** 3.25e+06 cfu/mL

**Q.** And the titer on NIH 3T3 (murine) cells [3]?
**A.** 6.4e+06 c.f.u./ml

**Q.** Which Titer (cfu/mL) on TE 671 cells [2] does the source give for “SL3-2 envelope polypeptide (wild type envelope protein of Murine Leukaemia Virus SL3-2) (from UniProt P03388 33-640)” here?
**A.** 4.75 cfu/mL

**Q.** What about the Titer on 293 cells [2] of the same substance?
**A.** < 2 c.f.u./ml

**Q.** What about the Titer on Human HeLa cells [2] of the same substance?
**A.** < 2 c.f.u./ml

**Q.** And the titer on HeLa cells [2]?
**A.** 0 cfu/mL

**Q.** What about the titer on TE 671 (human) cells [2] of the same substance?
**A.** < 4 c.f.u./ml

**Q.** And the titer on TE 671 cells [2]?
**A.** < 2 c.f.u./ml
